Measured values from patent publication US20030008857A1, “Photodynamic therapy (PDT) in combination with factors that bind cell surface apoptosis-inducing receptors” (priority 1999, published 2003).
“Also recorded” adds a separate entry of the source.

Columns and labels:
Assay type in all cases: cell-based, human
Jurkat T cells = assay: DNA fragmentation (sub-diploid DNA) by PI staining and flow cytometry
Method: (§1) The human Jurkat T cell line containing a neomycin resistance gene was obtained from Dr. Charles Rudin (University of Chicago). Cells were maintained in RPMI 1640 medium containing 10% heat-inactivated fetal calf serum (FCS) with penicillin (100 U/mL), streptomycin (100 μg/mL), 20 mM HEPES, 2 mM L-glutamine and G418 (1 μg/ml) purchased from Gibco BRL (Burlington, Ontario) in a CO2 incubator at 37° C. To elicit apoptosis with PDT, Jurkat cells were incubated with different amounts of liposomally formulated benzoporphyrin derivative monoacid ring A (BPD-MA, verteporfin, QLT PhotoTherapeutics, Inc., Vancouver, Canada) for one hour at 37° C. under light-protected conditions. The culture medium used for experiments was identical to that used for the passage of the cells except that FCS was used at a concentration of 5%. Experiments were conducted either in 6-well culture plates at 5×10^6 cells in a volume of 4 ml per well or in 96-well microtiter plates at 1×10^5 cells per well at 0.2 ml per well. Cells were irradiated with light of a wavelength of 690 nm delivered at 65-73 mW/sec from light emitting diodes (LED) to achieve a total light dose of 5 J/cm^2. Cells were returned to the incubator until required for analysis.
(§2) FasL and TRAIL as used were recombinant preparations. FasL was obtained from Upstate Biotechnology (Lake Placid NY) and corresponded to amino acids 103-281 of the soluble domain of human FasL. TRAIL was obtained from BIOMOL Research Laboratories (Plymouth Meeting, Pa.) and corresponded to residues 114-281 of the soluble domain of human TRAIL. FasL and TRAIL were usually added immediately following the treatment of cells with PDT, although in one series of experiments these factors were added at 1, 2 or 3 hours post-irradiation.
The proportion of cells containing sub-diploid levels of DNA 24 hours following treatment was determined using a propidium iodide (“PI”) fluorescence analysis procedure as described by Telford et al. (“Rapid Quantitation of Apoptosis in Pure and Heterogeneous Cell Populations Using Flow Cytometry” J. Immunol Methods 172:1-6 (1994)) or by Darzynkieicz et al. (“Features of Apoptotic Cells Measured by Flow Cytometry”, Cytometry, 13:795-808 (1992)).
Twenty four hours following PDT, 5×10^5 cells were washed twice with ice-cold PBS and then permeablized and fixed in 80% ethanol at 4° C. for one hour. The cells were again washed in ice-cold PBS and stained with PI (50 μg/mL) in PBS with simultaneous deoxyribose nuclease-free ribonuclease A (5 U/mL) treatment. These samples were analyzed by flow cytometry. The percentage of apoptotic cells was calculated using single color analysis for PI fluorescence with a Coulter XL flow cytometer (Coulter Electronics, Inc., Hialeah, Fla.). […] The degree of separation between the apoptotic population and the G0/G1 peak is readily apparent and the percentage of apoptotic cells is determined from the subsequent histogram.

[1] = system: DEVDase (caspases 3 and 7); assay: Protease assay of cell extracts with Ac-DEVD-AMC; conditions: FasL 7.5 ng/ml, 3 hours, Jurkat whole cell extracts
Method: as §1, with “Cells were irradiated with light of a wavelength of 690 nm delivered at 65-73 mW/sec from light emitting diodes (LED) to achieve a total light dose of 5 J/cm^2. Cells were returned to the incubator until required for analysis.” left out
(§3) These sequences are denoted by letter codes for each amino acid. […] The reaction mixture was incubated at 37° C. for 1 (DEVD.AMC) or 24 (VEID.AMC and IETH.AMC) h and fluorescence was measured using an excitation at 380 nm and an emission wavelength of 460 nm with a CytoFluor™ 2350 fluorescent measuring system (Perseptive Biosystems, Burlington, Ont).

VEIDase (caspase 6) = assay: Protease assay of cell extracts with Ac-VEID-AMC; conditions: FasL 7.5 ng/ml, 3 hours, Jurkat whole cell extracts
Method: as §1, with “Cells were irradiated with light of a wavelength of 690 nm delivered at 65-73 mW/sec from light emitting diodes (LED) to achieve a total light dose of 5 J/cm^2. Cells were returned to the incubator until required for analysis.” left out
as §3

IETDase (caspase 8) = assay: Protease assay of cell extracts with Ac-IETD-AMC; conditions: FasL 7.5 ng/ml, 3 hours, Jurkat whole cell extracts
Method: as §1, with “Cells were irradiated with light of a wavelength of 690 nm delivered at 65-73 mW/sec from light emitting diodes (LED) to achieve a total light dose of 5 J/cm^2. Cells were returned to the incubator until required for analysis.” left out
as §3

caspase-3, -6 and -8 = assay: Caspase cleavage activity of cell extracts, statements covering DEVD, VEID and IETD peptides together
Method: as §1, §2
Whole cell lysates were prepared by washing 1×10^7 cells per sample twice with ice-cold PBS. Cells were disrupted with 1 mL of lysis buffer [1% Nonidet P-40 detergent (NP-40), 20 mM Tris-HCl, pH 8.0, 137 mM NaCl, 10% glycerol, 1 mM phenylmethylsulfonyl fluoride (PMSF) aprotinln (0.15 U/mL) and 1 mM sodium orthovanadate] for 20 minutes on ice. Lysates were centrifuged for 10 minutes at 15,800×g at 4° C.
These sequences are denoted by letter codes for each amino acid. To evaluate relative DEVDase (caspases 3 and 7), VEIDase (caspase 6) and IETDase (caspase 8) cleavage activity, Jurkat cell lysates were incubated with caspase-specific fluorescent substrates as described by Granville et al. (“Photodynamic therapy induces caspase-3 activation in HL-60 cells”, Cell Death Differ., 4, 623-629 (1997)). Briefly, lysates were incubated with reaction buffer (20 mM Tris pH 7.5, 137 mM NaCl, 1% NP-40, 10% glycerol) containing 100 μM of the caspase substrates Ac-DEVD-AMC (Calbiochem, Cambridge, Mass.), Ac-VEID-AMC (Calbiochem, Cambridge, Mass.), Ac-lETD-AMC (BIOMOL, Plymouth Meeting Pa.), and Ac-LEHD-AMC (Calbiochem, Cambridge, Mass.). The letter codes for the amino acid residues present within the inhibitor peptides are as following: D=aspartic acid; E=glutamic acid; H=histidine; I=isoleucine; T=threonine; V=valine. The reaction mixture was incubated at 37° C. for 1 (DEVD.AMC) or 24 (VEID.AMC and IETH.AMC) h and fluorescence was measured using an excitation at 380 nm and an emission wavelength of 460 nm with a CytoFluor™ 2350 fluorescent measuring system (Perseptive Biosystems, Burlington, Ont).

[2] = system: caspase-3, -6, -8 and -9 and PARP; assay: Western immunoblot of caspase processing and PARP cleavage in Jurkat cells; conditions: 3 hours
Method: as §1
(§4) FasL and TRAIL as used were recombinant preparations. […]

cytochrome c = assay: Cytochrome c in cytosolic extracts of Jurkat cells (immunoblot); conditions: 3 hours
Method: as §1, §4

[3] = FasL 7.5 ng/ml or TRAIL 20 ng/ml

B1: FasL: recombinant, amino acids 103-281 of the soluble domain of human FasL (Upstate Biotechnology) (protein, UniProt P48023 103-281, looked up, fragment)
chain: QLFHLQKELAELRESTSQMHTASSLEKQIGHPSPPPEKKELRKVAHLTGKSNSRSMPLEWEDTYGIVLLSGVKYKKGGLVINETGLYFVYSKVYFRGQSCNNLPLSHKVYMRNSKYPQDLVMMEGKMMSYCTTGQMWARSSYLGAVFNLTSADHLYVNVSELSLVNFEESQTFFGLYKL
- increase in proportion of cells with sub-diploid DNA versus light-treated control cells (Jurkat T cells; FasL 7.5 ng/ml added after PDT with verteporfin 2 ng/ml, 5 J/cm^2, 24 hours): twelve-fold
- increase in the number of cells displaying DNA fragmentation (Jurkat T cells; FasL 7.5 ng/ml by itself, 24 hours (FIG. 2)): seven-fold
- cells with induced DNA fragmentation (Jurkat T cells; FasL 200 ng/ml, within 24 hours): approximately 60%
- proportion of cells with sub-diploid DNA compared with PDT alone (Jurkat T cells; TRAIL 20 ng/ml or FasL 7.5 ng/ml added after PDT with verteporfin 0.5 and 1 ng/ml): a greater proportion of cells contained a sub-diploid level of DNA
- DNA fragmentation induced by the factor without PDT across addition times (Jurkat T cells; added at 5 minutes, 1, 2 or 3 hours, FasL 7.5 ng/ml, TRAIL 20 ng/ml, individually or in combination): a comparable level of DNA fragmentation
- change of the combined effect with PDT on DNA fragmentation (Jurkat T cells; factor added at 3 hours post-PDT (verteporfin 2 ng/ml)): a modest decline
- capacity to accentuate PDT-mediated apoptosis (DNA fragmentation) (Jurkat T cells; factor added up to 3 hours after PDT (verteporfin 2 ng/ml), FasL 7.5 ng/ml, TRAIL 20 ng/ml): still demonstrable
- increase in DEVDase-like cleavage activity versus control cells [1]: approximately two-fold
- increase in VEIDase-like cleavage activity versus control cells (VEIDase (caspase 6)): approximately two-fold
- increase in IETDase-like activity versus control cells (IETDase (caspase 8)): one-and-half fold
- caspase activity compared with the treatments given independently (caspase-3, -6 and -8; FIG. 7: factor combined with PDT (verteporfin 5 ng/ml, 5 J/cm^2), 3 hours): higher caspase activity
- protease activity on DEVD, VEID and IETD peptides, single treatment (caspase-3, -6 and -8; FIG. 7: verteporfin 5 ng/ml with light, FasL 7.5 ng/ml or TRAIL 20 ng/ml alone, 3 hours): modestly increased
- nature of the combined effect on caspase cleavage activity (caspase-3, -6 and -8; FasL 7.5 ng/ml plus PDT at verteporfin 5 ng/ml): greater than additive effect
- caspase cleavage activity levels relative to PDT or FasL applied independently (caspase-3, -6 and -8; FasL 7.5 ng/ml plus PDT at verteporfin 5 ng/ml, 3 hours): 2-5 fold
- protease activity compared with FasL or TRAIL alone (caspase-3, -6 and -8; factor plus verteporfin in the absence of light irradiation): no different
- caspase processing and PARP degradation compared with PDT or the factor alone ([2]; FasL 7.5 ng/ml or TRAIL 20 ng/ml combined with verteporfin PDT): more extensive caspase processing and PARP degradation; also recorded: a higher degree of processing
- processing of caspases and PARP by the factor alone [2, 3]: little or no processing; also recorded: little detectable processing
- cytochrome c in cytosolic extracts, factor alone (cytochrome c; [3]): background levels of cytochrome c
- cytochrome c in cytosolic extracts, factor with PDT (cytochrome c; PDT in combination with TRAIL 20 ng/ml or FasL 7.5 ng/ml): readily detectable amounts of cytochrome c
